Test results published in the supplement of paper PMC12764529.
± gives the half width of the 95% confidence interval.

Legend:
[1] = folding stability dG unfold from chymotrypsin proteolysis; higher = more stable
Summary of the method: (§1)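 Designed mini-proteins (under 80 residues, no cysteine) in a PA-tagged cDNA display construct were digested with trypsin and chymotrypsin. Each protease was used at 11 concentrations (threefold dilutions) plus a no-protease condition, followed by sequencing. K50 was inferred by Bayesian fitting of sequencing counts, and unfolding free energy was derived against a sequence-predicted unfolded-state K50 and a shared folded-state K50, per protease or combined. Only designs with AlphaFold2 dimer inter-PAE above 15 were kept.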

[2] = folding stability dG unfold from trypsin proteolysis; higher = more stable
Summary of the method: as §1

[3] = folding stability dG unfold (combined trypsin and chymotrypsin); higher = more stable
Summary of the method: as §1

Sequence	folding stability dG unfold [1] [kcal/mol]	folding stability dG unfold [2] [kcal/mol]	folding stability dG unfold [3] [kcal/mol]
SAGGSAGGSAGPENKNYMVMEMTIDIWIPLPPNAKVVFDPDEGKWKYVPIKIPIRIVMPWSAGGSAGGSAGG [r11_257_TrROS]	3.43 ± 0.12	2.91 ± 0.14	3.2 ± 0.15
SAGFWIRIDPKNPRIYISGMPPGMIELIAENAGAPDVTPVKPGRPWWDARDNHPDPDAVIPIPPENMMSAGG [r19_270_TrROS]	-0.39 ± 0.39	0.319 ± 0.16	0.0233 ± 0.24
SAGGSAMTVTYTPSTKTITITDPSNGKPVKVTVTEEKPVVPGKNVYELTVTVPDTGGEKKILITLPSAGGSA [r15_209_JUSTAS]	-0.192 ± 0.15	0.848 ± 0.055	0.55 ± 0.11
SMKIIIEIEVEPGKTEEEIKEEAEALAKELAKKLGLPKEAKVKIEKVKLEDGKLRYIITIEVDGKTIEFESA [r9_776_TrROS_Hall]	3.63 ± 0.064	3.72 ± 0.29	3.75 ± 0.24
SAGGLTVTLTDSSGNPVTVETELLPDNTLVLTITRTTPSGKTYTRTGIVSIDNTTINLVSFSEWTEDPSAGG [r13_451_JUSTAS]	3.25 ± 0.08	2.79 ± 0.097	3.02 ± 0.16
SAGGSAGGSAGGEIPIKIRPYDPKDGEPKDEHPIPFDTPNGNSLDEIAKQLPPDHFEVDISAGGSAGGSAGG [r17_339_TrROS]	1.11 ± 0.018	0.382 ± 0.067	0.875 ± 0.059
SAGGATITVEPAPGDSVVALAEFGDSLALVTFYPKEATAKVTVFGPNGIPSTATFTIKPGEELVITGSAGGS [r8_11_TrMRF]	1.59 ± 0.096	1.25 ± 0.079	1.47 ± 0.13
SAGGSAGGSAGDNIYVFEIDIKIKPRKDPDGKWQPEIEINIKIKDIKPIPPNDPELKDLLSAGGSAGGSAGG [r11_236_TrROS]	1.99 ± 0.036	2 ± 0.05	1.94 ± 0.07
SAGGSAIIIPIKSAEEILDQLENNPPGRPIHVWAPDGYWIKIEIDPGKGPKIKITEIYPMPPEEAKSAGGSA [r15_577_TrROS]	0.984 ± 0.062	0.741 ± 0.026	0.896 ± 0.09
SAGGSAGGSAGSVTVTLSSDPDKTFTVTLPGGETVTFQPTPTNQVTVTVTSPTTPVTVTVSSAGGSAGGSAG [r3_334_JUSTAS]	0.636 ± 0.084	1.96 ± 0.074	1.43 ± 0.096
SAGGSAGGSAGGVVVVEVEIRLSDEEIEALKDLGISAEDLTLRVTVVVELPPPPPAEEESAGGSAGGSAGGS [r10_1149_TrROS_Hall]	1.04 ± 0.13	2.23 ± 0.2	1.5 ± 0.21
SAGGSAGGSAGGSSMITVSTTSFPDGTRKVTITEPGTGKPLKTVDMPPSESVSAVKEKLSSAGGSAGGSAGG [r7_633_JUSTAS]	-0.67 ± 0.2	-0.012 ± 0.1	-0.245 ± 0.2
SAGGSAGGSAGGENPEYKPKLLVLVKLEVNGEYYYREFETLEELENYNDPNLKVVAVADLSAGGSAGGSAGG [r7_793_TrMRF]	0.653 ± 0.11	1.27 ± 0.033	1.02 ± 0.083
SAGGSAGGSAGGMTKLEPLATEPNPLKVLTKVTTTDPVTGKPKTTIVETEIPVPESELGSAGGSAGGSAGGS [r10_846_JUSTAS]	-0.0657 ± 0.13	0.0416 ± 0.06	0.0083 ± 0.12
SAGGSAGGSAGGGMTITTTSSVSESDGGLTLSTTTTAFDPVTGTWTPLTTTTTTLPPTTSAGGSAGGSAGGS [r10_51_JUSTAS]	0.778 ± 0.041	1.65 ± 0.065	1.24 ± 0.053
SAGGSAGGSAGGELVLKIKVKPGEKVKLKLKLFDKNGKLVEEFEVEVEVVKEGDTLYIRLSAGGSAGGSAGG [r7_63_TrROS_Hall]	4.03 ± 0.052	2.69 ± 0.064	3.67 ± 0.11
SAGGSAGGSAKVKIVIKNENGEEFEIEMSEEELKKKLKPGDKVKIKIEKVNGKLKITIEKESAGGSAGGSAG [r3_86_TrROS_Hall]	2.11 ± 0.16	1.17 ± 0.12	2.02 ± 0.28
SAGGSAGGWRIKIMPMGGKKKKIPIDSPEEIIDKIQKEAKEDGLPGNVRITVEYNGQKRTFTIRSAGGSAGG [r6_532_TrROS]	-0.203 ± 0.6	1.41 ± 0.16	0.658 ± 0.2
SAGGSAGGSRLGLEEFERIAREIAEELGISDLVAEVEELEDDYALLTIYNPETGEKLEILVPGSAGGSAGGS [r12_1000_TrMRF]	0.898 ± 0.025	1.13 ± 0.053	1.07 ± 0.09
SADSVPIKLTFTFEVPEEIYEAAVKAIEDIFKDLGLEVEFEAKAEPGEEGVKVTVELNLTIPPNNPNLISAG [r14_76_TrMRF]	3.31 ± 0.096	2.44 ± 0.2	3.07 ± 0.16
SAGGSAGGSANVKLKIDLDPGYGYIKIKLEWEDPGTGNKQEMEITIPIPIPPPPPPPANDKKSAGGSAGGSA [r18_361_TrROS]	2.17 ± 0.11	1.12 ± 0.11	1.93 ± 0.43
